{
  "source": "IntAct's records for PubMed 17187064",
  "parents": {"B1": {"name": "A-type potassium channel modulatory protein KCNIP1 (Homo sapiens), Q9NZI2 (parent)", "chain": "MGAVMGTFSSLQTKQRRPSKDIAWWYYQYQRDKIEDELEMTMVCHRPEGLEQLEAQTNFTKRELQVLYRGFKNECPSGVVNEDTFKQIYAQFFPHGDASTYAHYLFNAFDTTQTGSVKFEDFVTALSILLRGTVHEKLRWTFNLYDINKDGYINKEEMMDIVKAIYDMMGKYTYPVLKEDTPRQHVDVFFQKMDKNKDGIVTLDEFLESCQEDDNIMRSLQLFQNVM", "partner": "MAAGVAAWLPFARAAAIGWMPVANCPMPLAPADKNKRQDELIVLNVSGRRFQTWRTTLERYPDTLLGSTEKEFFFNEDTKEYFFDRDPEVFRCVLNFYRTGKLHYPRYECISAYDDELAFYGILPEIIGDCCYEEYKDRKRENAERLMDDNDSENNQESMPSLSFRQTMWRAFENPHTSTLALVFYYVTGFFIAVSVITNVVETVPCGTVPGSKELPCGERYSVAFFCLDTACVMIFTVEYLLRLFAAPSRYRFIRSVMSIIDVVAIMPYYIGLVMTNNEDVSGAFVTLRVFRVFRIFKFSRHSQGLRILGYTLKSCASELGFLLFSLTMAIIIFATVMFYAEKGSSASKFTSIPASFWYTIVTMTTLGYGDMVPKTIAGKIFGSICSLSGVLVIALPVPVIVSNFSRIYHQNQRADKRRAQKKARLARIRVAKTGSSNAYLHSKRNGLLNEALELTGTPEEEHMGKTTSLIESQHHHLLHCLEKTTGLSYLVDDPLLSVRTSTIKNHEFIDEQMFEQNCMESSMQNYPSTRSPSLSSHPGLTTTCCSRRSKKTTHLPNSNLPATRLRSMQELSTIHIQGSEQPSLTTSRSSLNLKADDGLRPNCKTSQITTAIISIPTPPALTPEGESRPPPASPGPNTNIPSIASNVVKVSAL"}, "B2": {"name": "A-type voltage-gated potassium channel KCND3 (Homo sapiens), Q9UK17 (parent)", "chain": "B1 partner", "partner": "B1 chain"}},
  "data": [
    {"variants_of": "B1", "details": "with kcnd3_human KCND3, Q9UK17", "values": [
      {"variant": "MGAVMGTFSSLQTKQRRPSKDIAWWYYQYQRDKIEDELEMTMVCHRPEGLEQLEAQTNFTKRELQVLYRGFKNECPSGVVNEDTFKQIYAQFFPHGDASTYAHYLFNAFDTTQTGSVKFEDFVTALSILLRGTEHEKLRWTFNLYDINKDGYINKEEMMDIVKAIYDMMGKYTYPVLKEDTPRQHVDVFFQKMDKNKDGIVTLDEFLESCQEDDNIMRSLQLFQNVM", "note": "[V134E]", "effect of a mutation on the interaction": "disrupting interaction"}
    ]},
    {"variants_of": "B2", "details": "with kcip1_human KCNIP1, Q9NZI2", "values": [
      {"variant": "W8E;P10E;A15E", "effect of a mutation on the interaction": "disrupting interaction"}
    ]}
  ]
}
